Laboratory results as given in the Human Domainome abundance scans (Beltran et al. 2025).
± gives the uncertainty stated by the source.

B1: Syntaxin-binding protein 4, residues 493 to 538; numbered along this chain, Q6ZWJ1 (parent)
chain: LDMDCLPYGWEEAYTADGIKYFINHVTQTTSWIHPVMSVLNLSRSE
B2: POU domain, class 4, transcription factor 1, residues 266 to 347; numbered along this chain, Q01851 (parent)
chain: RELEAFAERFKQRRIKLGVTQADVGSALANLKIPGVGSLSQSTICRFESLTLSHNNMIALKPILQAWLEEAEGAQREKMNKP

Variants of: B1
Experiment: abundance fitness (aPCA) (normalised: wild type 0, dead -1); higher = more abundant; growth selection in yeast, the domain comes from the species named
Conditions: Homo sapiens

L1H and L1E are within error of each other in abundance fitness: -0.269 ± 0.33 for the first, 0.068 ± 0.21 for the second.

L1G and L1F are within error of each other in abundance fitness: -0.525 ± 0.21 for the first, -0.163 ± 0.17 for the second.

L1K and L1M are within error of each other in abundance fitness: 0.331 ± 0.23 for the first, 0.148 ± 0.13 for the second.

Variants of: B2
Experiment: as above
Conditions: Homo sapiens

Going from Q65E to Q65H, the abundance fitness falls from 0.061 ± 0.031 to -0.047 ± 0.05.

Q65I and Q65G are within error of each other in abundance fitness: -0.105 ± 0.045 for the first, -0.086 ± 0.024 for the second.

First: Q65P
Second: T20L
The abundance fitness of the first is lower: -0.98 ± 0.079 for the first, -0.078 ± 0.19 for the second.

T20E and P62N are within error of each other in abundance fitness: -0.124 ± 0.094 for the first, -0.286 ± 0.13 for the second.

Going from P62D to P62R, the abundance fitness falls from -0.188 ± 0.077 to -0.347 ± 0.043.

P62V and P62C are within error of each other in abundance fitness: -0.485 ± 0.057 for the first, -0.429 ± 0.082 for the second.

First: P62T
Second: N80R
The abundance fitness of the first is lower: -0.192 ± 0.07 for the first, -0.032 ± 0.034 for the second.

N80L and N80H are within error of each other in abundance fitness: -0.026 ± 0.039 for the first, 0.019 ± 0.066 for the second.

N80T and R76G are within error of each other in abundance fitness: -0.007 ± 0.059 for the first, 0.007 ± 0.02 for the second.

Going from R76Y to R76H, the abundance fitness rises from -0.124 ± 0.05 to -0.003 ± 0.053.

R76P and R76K are within error of each other in abundance fitness: -0.002 ± 0.034 for the first, -0.006 ± 0.039 for the second.

F47S and F47Q are within error of each other in abundance fitness: -0.717 ± 0.14 for the first, -1 ± 0.34 for the second.

First: M57S
Second: M57G
The abundance fitness of the first is higher: -0.309 ± 0.053 for the first, -0.449 ± 0.04 for the second.

Compared with M57W, M57L is higher in abundance fitness: -0.289 ± 0.049 for the first, -0.031 ± 0.037 for the second.

Going from M57A to Q12E, the abundance fitness rises from -0.132 ± 0.047 to 0.015 ± 0.037.

Compared with Q12V, Q12P is lower in abundance fitness: -0.117 ± 0.03 for the first, -0.896 ± 0.079 for the second.

First: Q12N
Second: Q12Y
The abundance fitness of the first is higher: 0.031 ± 0.042 for the first, -0.13 ± 0.047 for the second.

L64E and L64Q are within error of each other in abundance fitness: -0.709 ± 0.12 for the first, -0.533 ± 0.18 for the second.

F6I and F6E are within error of each other in abundance fitness: -0.318 ± 0.051 for the first, -0.359 ± 0.03 for the second.

Compared with F6Q, F6L is higher in abundance fitness: -0.622 ± 0.047 for the first, -0.362 ± 0.027 for the second.

First: F6G
Second: P82Y
The abundance fitness of the first is lower: -0.906 ± 0.034 for the first, 0.095 ± 0.34 for the second.

P82W and P82K are within error of each other in abundance fitness: -0.116 ± 0.14 for the first, -0.047 ± 0.16 for the second.

P82L and I33C are within error of each other in abundance fitness: -0.123 ± 0.18 for the first, -0.005 ± 0.039 for the second.

I33A and I33N are within error of each other in abundance fitness: -0.139 ± 0.03 for the first, -0.219 ± 0.052 for the second.

I33W and G25Y are within error of each other in abundance fitness: -0.114 ± 0.03 for the first, -0.058 ± 0.087 for the second.

G25D and G25T are within error of each other in abundance fitness: 0.037 ± 0.093 for the first, -0.012 ± 0.076 for the second.

Going from G25A to K11P, the abundance fitness falls from 0.04 ± 0.047 to -0.833 ± 0.24.

K11R and K11H are within error of each other in abundance fitness: 0.023 ± 0.039 for the first, 0.175 ± 0.18 for the second.

S40W and W67Y are within error of each other in abundance fitness: -0.369 ± 0.076 for the first, -0.175 ± 0.18 for the second.

First: W67K
Second: E69T
The abundance fitness of the first is lower: -0.606 ± 0.17 for the first, -0.085 ± 0.07 for the second.

First: E69C
Second: E69I
The abundance fitness of the first is lower: -0.168 ± 0.07 for the first, 0.056 ± 0.11 for the second.

E69F and E69A are within error of each other in abundance fitness: -0.174 ± 0.12 for the first, -0.022 ± 0.048 for the second.

E69H and Q75T are within error of each other in abundance fitness: -0.076 ± 0.092 for the first, -0.033 ± 0.048 for the second.

Q75A and Q75E are within error of each other in abundance fitness: 0 ± 0.04 for the first, -0.01 ± 0.048 for the second.

Q75P and Q75W are within error of each other in abundance fitness: -0.063 ± 0.065 for the first, -0.077 ± 0.045 for the second.

Q75N and I58C are within error of each other in abundance fitness: -0.061 ± 0.11 for the first, -0.094 ± 0.093 for the second.

I58M and I58T are within error of each other in abundance fitness: -0.042 ± 0.074 for the first, 0.033 ± 0.081 for the second.

Compared with L3C, L3G is higher in abundance fitness: -0.901 ± 0.22 for the first, -0.523 ± 0.04 for the second.

L3N and L3Y are within error of each other in abundance fitness: -0.287 ± 0.12 for the first, -0.107 ± 0.084 for the second.

L3E and L3D are within error of each other in abundance fitness: -0.247 ± 0.043 for the first, -0.366 ± 0.099 for the second.

S38W and S38F are within error of each other in abundance fitness: -0.095 ± 0.14 for the first, 0.147 ± 0.18 for the second.

H54Q and H54N are within error of each other in abundance fitness: -0.02 ± 0.055 for the first, -0.075 ± 0.084 for the second.

H54T and K61C are within error of each other in abundance fitness: 0.08 ± 0.052 for the first, -0.012 ± 0.057 for the second.

K61N and K61F are within error of each other in abundance fitness: -0.388 ± 0.08 for the first, -0.349 ± 0.11 for the second.

K61Q and A22T are within error of each other in abundance fitness: 0.018 ± 0.074 for the first, -0.068 ± 0.1 for the second.

A22M and A22N are within error of each other in abundance fitness: -0.237 ± 0.16 for the first, 0.11 ± 0.33 for the second.

Compared with L28Q, L28M is higher in abundance fitness: -0.628 ± 0.052 for the first, -0.09 ± 0.037 for the second.

Compared with L28W, L28A is higher in abundance fitness: -0.555 ± 0.033 for the first, -0.422 ± 0.032 for the second.

L28C and I15H are within error of each other in abundance fitness: -0.042 ± 0.039 for the first, -0.083 ± 0.037 for the second.

I15G and I15D are within error of each other in abundance fitness: -0.286 ± 0.055 for the first, -0.211 ± 0.06 for the second.

N56I and N56T are within error of each other in abundance fitness: -0.049 ± 0.098 for the first, -0.029 ± 0.081 for the second.

First: N56V
Second: A66P
The abundance fitness of the first is higher: 0.066 ± 0.04 for the first, -0.619 ± 0.058 for the second.

Compared with A66V, A66S is higher in abundance fitness: -0.12 ± 0.026 for the first, -0.005 ± 0.031 for the second.

A66E and A66N are within error of each other in abundance fitness: 0.012 ± 0.029 for the first, -0.017 ± 0.05 for the second.

Compared with L68V, L68T is lower in abundance fitness: -0.074 ± 0.051 for the first, -0.459 ± 0.12 for the second.

Going from L68S to L68I, the abundance fitness rises from -0.497 ± 0.08 to 0.037 ± 0.21.

V36S and V36L are within error of each other in abundance fitness: -0.096 ± 0.24 for the first, 0.003 ± 0.12 for the second.

V36I and V36T are within error of each other in abundance fitness: 0.013 ± 0.13 for the first, 0.24 ± 0.15 for the second.

T43Y and T43A are within error of each other in abundance fitness: -0.238 ± 0.21 for the first, -0.044 ± 0.051 for the second.

T43W and N55D are within error of each other in abundance fitness: -0.131 ± 0.068 for the first, -0.094 ± 0.1 for the second.

N55V and N55W are within error of each other in abundance fitness: -0.051 ± 0.043 for the first, -0.023 ± 0.062 for the second.

I63K and I63F are within error of each other in abundance fitness: -0.137 ± 0.07 for the first, 0.027 ± 0.15 for the second.

Going from I63T to I63G, the abundance fitness falls from 0.034 ± 0.08 to -0.274 ± 0.041.

Going from K16Y to K16C, the abundance fitness rises from -0.129 ± 0.037 to -0.004 ± 0.055.

First: K16S
Second: L39F
The abundance fitness of the first is higher: 0.013 ± 0.027 for the first, -0.211 ± 0.16 for the second.

L39C and L39W are within error of each other in abundance fitness: -0.096 ± 0.071 for the first, -0.169 ± 0.046 for the second.

M79L and M79K are within error of each other in abundance fitness: 0.001 ± 0.024 for the first, 0.039 ± 0.035 for the second.

M79D and M79Y are within error of each other in abundance fitness: -0.022 ± 0.041 for the first, -0.011 ± 0.052 for the second.

First: R9W
Second: R9L
The abundance fitness of the first is lower: -0.154 ± 0.062 for the first, 0.061 ± 0.05 for the second.

R9Y and R9H are within error of each other in abundance fitness: -0.035 ± 0.19 for the first, -0.003 ± 0.14 for the second.

E77L and E77Y are within error of each other in abundance fitness: -0.053 ± 0.031 for the first, -0.009 ± 0.068 for the second.

E77Q and E77A are within error of each other in abundance fitness: -0.02 ± 0.049 for the first, -0.044 ± 0.03 for the second.

C45H and C45Y are within error of each other in abundance fitness: 0.089 ± 0.12 for the first, -0.037 ± 0.1 for the second.

C45A and R1N are within error of each other in abundance fitness: 0.057 ± 0.043 for the first, 0.02 ± 0.05 for the second.

Going from R1H to R1S, the abundance fitness rises from -0.326 ± 0.18 to -0.026 ± 0.033.

First: R1E
Second: A71W
The abundance fitness of the first is higher: 0.007 ± 0.052 for the first, -0.186 ± 0.054 for the second.

A71H and A71Y are within error of each other in abundance fitness: -0.146 ± 0.12 for the first, -0.353 ± 0.17 for the second.

A71N and A71I are within error of each other in abundance fitness: 0.044 ± 0.1 for the first, -0.18 ± 0.19 for the second.

V19K and V19Q are within error of each other in abundance fitness: 0.003 ± 0.061 for the first, 0.11 ± 0.076 for the second.

V19S and A74E are within error of each other in abundance fitness: -0.062 ± 0.062 for the first, 0.025 ± 0.029 for the second.

A74H gave an abundance fitness of -0.009 ± 0.042.
